Assay results published in patent US20140087995A1 (published 2014).
Numbered stars: 1 amine (or outer) side, 2 acyl side, 3 side chain; on linkers, the order of the positions; unused ones are H or OH. Bridge positions count the residues as written; N and C are the ends. Side chains are listed from the residue outwards. Ends that are not written are not given here. * marks the point of attachment. C20 diacid = O=C(O)CCCCCCCCCCCCCCCCCCC(=O)*; γGlu = O=C(O)[C@H](CCC(=O)[*:2])N[*:1]; AEEA = NCCOCCOCC(=O)O

T1: human amylin receptor (amylin 3(a) receptor: human calcitonin receptor with RAMP-3) (human, UniProt P30988 25-474; O60896 24-148)
T1 construct: whole, on cells; also called hAmylin-R; hAmylinR
T1 sequence (looked up) 1: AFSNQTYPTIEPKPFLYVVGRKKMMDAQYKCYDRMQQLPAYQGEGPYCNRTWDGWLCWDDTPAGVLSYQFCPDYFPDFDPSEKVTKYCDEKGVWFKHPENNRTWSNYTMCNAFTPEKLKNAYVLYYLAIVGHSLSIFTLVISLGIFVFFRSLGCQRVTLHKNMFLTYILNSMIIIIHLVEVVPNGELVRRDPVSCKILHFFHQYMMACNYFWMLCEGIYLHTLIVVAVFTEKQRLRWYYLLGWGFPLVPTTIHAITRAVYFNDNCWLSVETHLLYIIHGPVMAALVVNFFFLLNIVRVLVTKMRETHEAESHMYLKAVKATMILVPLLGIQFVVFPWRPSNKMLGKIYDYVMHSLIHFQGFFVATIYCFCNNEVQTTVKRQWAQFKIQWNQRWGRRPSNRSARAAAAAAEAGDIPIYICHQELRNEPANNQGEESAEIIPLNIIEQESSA
T1 sequence (looked up) 2: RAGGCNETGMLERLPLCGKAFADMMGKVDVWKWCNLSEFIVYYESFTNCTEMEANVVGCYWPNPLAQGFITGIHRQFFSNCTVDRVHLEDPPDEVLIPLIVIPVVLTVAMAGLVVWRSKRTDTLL

B1: N^ε1-[2-[2-[2-[[(4S)-4-carboxy-4-(19-carboxynonadecanoylamino)butanoyl]amino]ethoxy]ethoxy]acetyl]-[Arg14,Arg17,Pro21,Pro27]-h-amylin (peptide)
peptide: K([AEEA-γGlu-C20 diacid])CNTATCATQRLARFLRHSSPNFGAIPSSTNVGSNTY-NH2
modifications: disulfide 2-7; N-terminus assumed
SMILES: CC[C@H](C)[C@H](NC(=O)[C@H](C)NC(=O)CNC(=O)[C@H](Cc1ccccc1)NC(=O)[C@H](CC(N)=O)NC(=O)[C@@H]1CCCN1C(=O)[C@H](CO)NC(=O)[C@H](CO)NC(=O)[C@H](Cc1c[nH]cn1)NC(=O)[C@H](CCCNC(=N)N)NC(=O)[C@H](CC(C)C)NC(=O)[C@H](Cc1ccccc1)NC(=O)[C@H](CCCNC(=N)N)NC(=O)[C@H](C)NC(=O)[C@H](CC(C)C)NC(=O)[C@H](CCCNC(=N)N)NC(=O)[C@H](CCC(N)=O)NC(=O)[C@@H](NC(=O)[C@H](C)NC(=O)[C@@H]1CSSC[C@H](NC(=O)[C@@H](N)CCCCNC(=O)COCCOCCNC(=O)CC[C@H](NC(=O)CCCCCCCCCCCCCCCCCCC(=O)O)C(=O)O)C(=O)N[C@@H](CC(N)=O)C(=O)N[C@@H]([C@@H](C)O)C(=O)N[C@@H](C)C(=O)N[C@@H]([C@@H](C)O)C(=O)N1)[C@@H](C)O)C(=O)N1CCC[C@H]1C(=O)N[C@@H](CO)C(=O)N[C@@H](CO)C(=O)N[C@H](C(=O)N[C@@H](CC(N)=O)C(=O)N[C@H](C(=O)NCC(=O)N[C@@H](CO)C(=O)N[C@@H](CC(N)=O)C(=O)N[C@H](C(=O)N[C@@H](Cc1ccc(O)cc1)C(N)=O)[C@@H](C)O)C(C)C)[C@@H](C)O
notes: also called 82; compound 82
B2: N^ε1-[2-[2-[2-[[(4S)-4-carboxy-4-(19-carboxynonadecanoylamino)butanoyl]amino]ethoxy]ethoxy]acetyl]-[Arg17,Pro21,Pro27,His34]-h-amylin (peptide)
peptide: K([AEEA-γGlu-C20 diacid])CNTATCATQRLANFLRHSSPNFGAIPSSTNVGHNTY-NH2
modifications: disulfide 2-7; N-terminus assumed
SMILES: CC[C@H](C)[C@H](NC(=O)[C@H](C)NC(=O)CNC(=O)[C@H](Cc1ccccc1)NC(=O)[C@H](CC(N)=O)NC(=O)[C@@H]1CCCN1C(=O)[C@H](CO)NC(=O)[C@H](CO)NC(=O)[C@H](Cc1c[nH]cn1)NC(=O)[C@H](CCCNC(=N)N)NC(=O)[C@H](CC(C)C)NC(=O)[C@H](Cc1ccccc1)NC(=O)[C@H](CC(N)=O)NC(=O)[C@H](C)NC(=O)[C@H](CC(C)C)NC(=O)[C@H](CCCNC(=N)N)NC(=O)[C@H](CCC(N)=O)NC(=O)[C@@H](NC(=O)[C@H](C)NC(=O)[C@@H]1CSSC[C@H](NC(=O)[C@@H](N)CCCCNC(=O)COCCOCCNC(=O)CC[C@H](NC(=O)CCCCCCCCCCCCCCCCCCC(=O)O)C(=O)O)C(=O)N[C@@H](CC(N)=O)C(=O)N[C@@H]([C@@H](C)O)C(=O)N[C@@H](C)C(=O)N[C@@H]([C@@H](C)O)C(=O)N1)[C@@H](C)O)C(=O)N1CCC[C@H]1C(=O)N[C@@H](CO)C(=O)N[C@@H](CO)C(=O)N[C@H](C(=O)N[C@@H](CC(N)=O)C(=O)N[C@H](C(=O)NCC(=O)N[C@@H](Cc1c[nH]cn1)C(=O)N[C@@H](CC(N)=O)C(=O)N[C@H](C(=O)N[C@@H](Cc1ccc(O)cc1)C(N)=O)[C@@H](C)O)C(C)C)[C@@H](C)O
notes: also called 76; compound 76
B3: N^ε1-[2-[2-[2-[[(4S)-4-carboxy-4-(19-carboxynonadecanoylamino)butanoyl]amino]ethoxy]ethoxy]acetyl]-[Arg17,Pro21,Pro27,Pro28,Pro34]-h-amylin (peptide)
peptide: K([AEEA-γGlu-C20 diacid])CNTATCATQRLANFLRHSSPNFGAIPPSTNVGPNTY-NH2
modifications: disulfide 2-7; N-terminus assumed
SMILES: CC[C@H](C)[C@H](NC(=O)[C@H](C)NC(=O)CNC(=O)[C@H](Cc1ccccc1)NC(=O)[C@H](CC(N)=O)NC(=O)[C@@H]1CCCN1C(=O)[C@H](CO)NC(=O)[C@H](CO)NC(=O)[C@H](Cc1c[nH]cn1)NC(=O)[C@H](CCCNC(=N)N)NC(=O)[C@H](CC(C)C)NC(=O)[C@H](Cc1ccccc1)NC(=O)[C@H](CC(N)=O)NC(=O)[C@H](C)NC(=O)[C@H](CC(C)C)NC(=O)[C@H](CCCNC(=N)N)NC(=O)[C@H](CCC(N)=O)NC(=O)[C@@H](NC(=O)[C@H](C)NC(=O)[C@@H]1CSSC[C@H](NC(=O)[C@@H](N)CCCCNC(=O)COCCOCCNC(=O)CC[C@H](NC(=O)CCCCCCCCCCCCCCCCCCC(=O)O)C(=O)O)C(=O)N[C@@H](CC(N)=O)C(=O)N[C@@H]([C@@H](C)O)C(=O)N[C@@H](C)C(=O)N[C@@H]([C@@H](C)O)C(=O)N1)[C@@H](C)O)C(=O)N1CCC[C@H]1C(=O)N1CCC[C@H]1C(=O)N[C@@H](CO)C(=O)N[C@H](C(=O)N[C@@H](CC(N)=O)C(=O)N[C@H](C(=O)NCC(=O)N1CCC[C@H]1C(=O)N[C@@H](CC(N)=O)C(=O)N[C@H](C(=O)N[C@@H](Cc1ccc(O)cc1)C(N)=O)[C@@H](C)O)C(C)C)[C@@H](C)O
notes: also called 55; compound 55
B4: N^ε1-[2-[2-[2-[[(4S)-4-carboxy-4-(19-carboxynonadecanoylamino)butanoyl]amino]ethoxy]ethoxy]acetyl]-[Arg17,Pro21,Pro27,Arg35]-h-amylin (peptide)
peptide: K([AEEA-γGlu-C20 diacid])CNTATCATQRLANFLRHSSPNFGAIPSSTNVGSRTY-NH2
modifications: disulfide 2-7; N-terminus assumed
SMILES: CC[C@H](C)[C@H](NC(=O)[C@H](C)NC(=O)CNC(=O)[C@H](Cc1ccccc1)NC(=O)[C@H](CC(N)=O)NC(=O)[C@@H]1CCCN1C(=O)[C@H](CO)NC(=O)[C@H](CO)NC(=O)[C@H](Cc1c[nH]cn1)NC(=O)[C@H](CCCNC(=N)N)NC(=O)[C@H](CC(C)C)NC(=O)[C@H](Cc1ccccc1)NC(=O)[C@H](CC(N)=O)NC(=O)[C@H](C)NC(=O)[C@H](CC(C)C)NC(=O)[C@H](CCCNC(=N)N)NC(=O)[C@H](CCC(N)=O)NC(=O)[C@@H](NC(=O)[C@H](C)NC(=O)[C@@H]1CSSC[C@H](NC(=O)[C@@H](N)CCCCNC(=O)COCCOCCNC(=O)CC[C@H](NC(=O)CCCCCCCCCCCCCCCCCCC(=O)O)C(=O)O)C(=O)N[C@@H](CC(N)=O)C(=O)N[C@@H]([C@@H](C)O)C(=O)N[C@@H](C)C(=O)N[C@@H]([C@@H](C)O)C(=O)N1)[C@@H](C)O)C(=O)N1CCC[C@H]1C(=O)N[C@@H](CO)C(=O)N[C@@H](CO)C(=O)N[C@H](C(=O)N[C@@H](CC(N)=O)C(=O)N[C@H](C(=O)NCC(=O)N[C@@H](CO)C(=O)N[C@@H](CCCNC(=N)N)C(=O)N[C@H](C(=O)N[C@@H](Cc1ccc(O)cc1)C(N)=O)[C@@H](C)O)C(C)C)[C@@H](C)O
notes: also called 38; compound 38
B5: N^ε1-[2-[2-[2-[[(4S)-4-carboxy-4-(19-carboxynonadecanoylamino)butanoyl]amino]ethoxy]ethoxy]acetyl]-[Arg17,Pro21,Pro27,Arg34]-h-amylin (peptide)
peptide: K([AEEA-γGlu-C20 diacid])CNTATCATQRLANFLRHSSPNFGAIPSSTNVGRNTY-NH2
modifications: disulfide 2-7; N-terminus assumed
SMILES: CC[C@H](C)[C@H](NC(=O)[C@H](C)NC(=O)CNC(=O)[C@H](Cc1ccccc1)NC(=O)[C@H](CC(N)=O)NC(=O)[C@@H]1CCCN1C(=O)[C@H](CO)NC(=O)[C@H](CO)NC(=O)[C@H](Cc1c[nH]cn1)NC(=O)[C@H](CCCNC(=N)N)NC(=O)[C@H](CC(C)C)NC(=O)[C@H](Cc1ccccc1)NC(=O)[C@H](CC(N)=O)NC(=O)[C@H](C)NC(=O)[C@H](CC(C)C)NC(=O)[C@H](CCCNC(=N)N)NC(=O)[C@H](CCC(N)=O)NC(=O)[C@@H](NC(=O)[C@H](C)NC(=O)[C@@H]1CSSC[C@H](NC(=O)[C@@H](N)CCCCNC(=O)COCCOCCNC(=O)CC[C@H](NC(=O)CCCCCCCCCCCCCCCCCCC(=O)O)C(=O)O)C(=O)N[C@@H](CC(N)=O)C(=O)N[C@@H]([C@@H](C)O)C(=O)N[C@@H](C)C(=O)N[C@@H]([C@@H](C)O)C(=O)N1)[C@@H](C)O)C(=O)N1CCC[C@H]1C(=O)N[C@@H](CO)C(=O)N[C@@H](CO)C(=O)N[C@H](C(=O)N[C@@H](CC(N)=O)C(=O)N[C@H](C(=O)NCC(=O)N[C@@H](CCCNC(=N)N)C(=O)N[C@@H](CC(N)=O)C(=O)N[C@H](C(=O)N[C@@H](Cc1ccc(O)cc1)C(N)=O)[C@@H](C)O)C(C)C)[C@@H](C)O
notes: also called 78; compound 78
B6: N^ε1-[2-[2-[2-[[(4S)-4-carboxy-4-(19-carboxynonadecanoylamino)butanoyl]amino]ethoxy]ethoxy]acetyl]-[Arg17,Pro21,Pro27,Glu35]-h-amylin (peptide)
peptide: K([AEEA-γGlu-C20 diacid])CNTATCATQRLANFLRHSSPNFGAIPSSTNVGSETY-NH2
modifications: disulfide 2-7; N-terminus assumed
SMILES: CC[C@H](C)[C@H](NC(=O)[C@H](C)NC(=O)CNC(=O)[C@H](Cc1ccccc1)NC(=O)[C@H](CC(N)=O)NC(=O)[C@@H]1CCCN1C(=O)[C@H](CO)NC(=O)[C@H](CO)NC(=O)[C@H](Cc1c[nH]cn1)NC(=O)[C@H](CCCNC(=N)N)NC(=O)[C@H](CC(C)C)NC(=O)[C@H](Cc1ccccc1)NC(=O)[C@H](CC(N)=O)NC(=O)[C@H](C)NC(=O)[C@H](CC(C)C)NC(=O)[C@H](CCCNC(=N)N)NC(=O)[C@H](CCC(N)=O)NC(=O)[C@@H](NC(=O)[C@H](C)NC(=O)[C@@H]1CSSC[C@H](NC(=O)[C@@H](N)CCCCNC(=O)COCCOCCNC(=O)CC[C@H](NC(=O)CCCCCCCCCCCCCCCCCCC(=O)O)C(=O)O)C(=O)N[C@@H](CC(N)=O)C(=O)N[C@@H]([C@@H](C)O)C(=O)N[C@@H](C)C(=O)N[C@@H]([C@@H](C)O)C(=O)N1)[C@@H](C)O)C(=O)N1CCC[C@H]1C(=O)N[C@@H](CO)C(=O)N[C@@H](CO)C(=O)N[C@H](C(=O)N[C@@H](CC(N)=O)C(=O)N[C@H](C(=O)NCC(=O)N[C@@H](CO)C(=O)N[C@@H](CCC(=O)O)C(=O)N[C@H](C(=O)N[C@@H](Cc1ccc(O)cc1)C(N)=O)[C@@H](C)O)C(C)C)[C@@H](C)O
notes: also called 26; compound 26

The binders below were run against T1, human amylin receptor (amylin 3(a) …) (assay: SPA displacement of 125I-rat amylin, hAmylin 3(a) receptor membranes).
Procedure, shortened: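 One-site competition analysis of SPA counts yielded IC₅₀ as a measure of affinity. Membranes were at 35 ng/μL final; incubation was 120 min at 25° C, pH 7.4.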

| IC50 | Binder |
| --- | --- |
| 636 pM | B1 |
| 215 pM | B2 |
| 42 pM | B3 |
| 249 pM | B4 |
| 602 pM | B5 |
| 52 pM | K([AEEA-γGlu-C20 diacid])CNTATCATQRLANFLRHSSPNFGAIPPSTPVGSNTY-NH2 (disulfide 2-7, also called 53; compound 53) |
| 532 pM | B6 |
